Assay [1] concerns the target T1, CBF1-Myc (from CBF1-Myc^OE Arabidopsis plants) (Arabidopsis thaliana, UniProt P93835 1-213).
T1 construct: Overexpressed in Arabidopsis under the CaMV 35S promoter; The tag is placed C-terminal because of the name CBF1-Myc; also called CBF-Myc; CBFs-Myc; not shown: Myc tag
Nature of the assay: anti-Myc immunoprecipitation from CBF1-Myc^OE plants (4 °C, 6 h), then MALDI-TOF/TOF mass spectrometry. The method, then:
To identify the interacting partners of CBF1 in Arabidopsis, total proteins (100 mg) were extracted from 2-week-old CBF1-Myc^OE seedlings exposed to 4° C. for 6 h, and immunoprecipitated using an anti-Myc agarose (Sigma-Aldrich, St. Louis, MO, USA). The CBF1-My c-interacting proteins were washed three times at 4° C. with a buffer containing 50 mM Tris-HCl (pH 7.5), 150 mM NaCl, 1 mM EDTA, 1 mM DTT, and 0.1% NP40. The purified proteins were mixed with SDS-PAGE loading dye, heated at 90° C. for 5 min, and separated by SDS-PAGE. Proteins were identified by matrix assisted laser desorption/ionization-time of flight (MALDI-TOF)/TOF-mass spectrometry.

Assay [2] addresses T2, YC-CBF1 (CBF1 fused to the C-terminal fragment of YFP) (Arabidopsis thaliana, UniProt P93835 1-213).
T2 construct: BiFC construct expressed in Nicotiana benthamiana leaves; also called YC-CBFs; not shown: C-terminal fragment of YFP (YC)
Briefly: BiFC in Nicotiana benthamiana leaves at 4 °C (FIG. 6D). The method, then:
Interaction between Trx-h2 and CBFs under specific conditions was analyzed using the BiFC assay. Trx-h2 and CBFs were cloned individually into the gateway BiFC-binary vector, pDONR221, to generate pDONR221: Trx-h2 and pDONR221: CBF plasmids, respectively. The Trx-h2-YN plasmid was generated by fusing Trx-h2 with the N-terminal fragment of YFP (YN), while the YC-CBF plasmids were constructed by fusing each of the three CBFs with the C-terminal fragment of YFP (YC). These plasmids were introduced into A. tumefaciens strain GV3101, and the transformed cells were used to infiltrate the leaves of 4-week-old N. benthamiana plants. These plants were incubated at 26° C. for 2 days and then exposed to 4° C. for 6 h. Fluorescence signals generated by YFP were analyzed under a confocal microscope using the FV10-ASW 3.1 software.

T2 sequence (P93835 whole entry, the tested form may be a part): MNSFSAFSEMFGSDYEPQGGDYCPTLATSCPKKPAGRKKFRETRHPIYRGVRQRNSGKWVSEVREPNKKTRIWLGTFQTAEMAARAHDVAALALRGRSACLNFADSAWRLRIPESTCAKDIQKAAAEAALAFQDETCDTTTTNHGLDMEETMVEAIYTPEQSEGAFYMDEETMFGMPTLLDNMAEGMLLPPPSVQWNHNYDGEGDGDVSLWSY
T1 sequence (P93835 whole entry): as the sequence (P93835 whole entry, the tested form may be a part) above

B1: Trx-h2, endogenous protein in Arabidopsis plants (enzyme)
chain: GGALSTVFGSGEDATAAGTESEPSRVLKFSSSARWQLHFNEIKESNKLLVVDFSASWCGPCRMIEPAIHAMADKFNDVDFVKLDVDELPDVAKEFNVTAMPTFVLVKRGKEIERIIGAKKDELEKKVSKLRA
modifications: myristoylated at Gly2 at 22 °C; demyristoylated at 4 °C
notes: Native Trx-h2 that co-precipitated with CBF-Myc from plant extracts (IP/mass spectrometry and Co-IP); also called thioredoxin h2
As for B1, the binding result in assay [1] is “binds”.

B2: Trx-h3 (control) in the BiFC assay (enzyme, Arabidopsis, UniProt Q42403 2-118, looked up)
chain: AAEGEVIACHTVEDWTEKLKAANESKKLIVIDFTATWCPPCRFIAPVFADLAKKHLDVVFFKVDVDELNTVAEEFKVQAMPTFIFMKEGEIKETVVGAAKEEIIANLEKHKTVVAAA
notes: BiFC control; The YFP fragment fused to it is not described
Regarding B2, the binding result in assay [2] was “no binding”.

Values taken from patent US20230374534A1 (INDUSTRY ACADEMIC COOPERATION FOUNDATION GYEONGSANG …, published 2023).
